This note sets out measurements from publication PMC10388275 (Haematologica, 2023).

For this assay, the target named is rmSiglec1-mFc (mouse, UniProt Q62230 20-1639). The experiment in a line: SPR.
Sequence of rmSiglec1-mFc (Q62230 20-1639): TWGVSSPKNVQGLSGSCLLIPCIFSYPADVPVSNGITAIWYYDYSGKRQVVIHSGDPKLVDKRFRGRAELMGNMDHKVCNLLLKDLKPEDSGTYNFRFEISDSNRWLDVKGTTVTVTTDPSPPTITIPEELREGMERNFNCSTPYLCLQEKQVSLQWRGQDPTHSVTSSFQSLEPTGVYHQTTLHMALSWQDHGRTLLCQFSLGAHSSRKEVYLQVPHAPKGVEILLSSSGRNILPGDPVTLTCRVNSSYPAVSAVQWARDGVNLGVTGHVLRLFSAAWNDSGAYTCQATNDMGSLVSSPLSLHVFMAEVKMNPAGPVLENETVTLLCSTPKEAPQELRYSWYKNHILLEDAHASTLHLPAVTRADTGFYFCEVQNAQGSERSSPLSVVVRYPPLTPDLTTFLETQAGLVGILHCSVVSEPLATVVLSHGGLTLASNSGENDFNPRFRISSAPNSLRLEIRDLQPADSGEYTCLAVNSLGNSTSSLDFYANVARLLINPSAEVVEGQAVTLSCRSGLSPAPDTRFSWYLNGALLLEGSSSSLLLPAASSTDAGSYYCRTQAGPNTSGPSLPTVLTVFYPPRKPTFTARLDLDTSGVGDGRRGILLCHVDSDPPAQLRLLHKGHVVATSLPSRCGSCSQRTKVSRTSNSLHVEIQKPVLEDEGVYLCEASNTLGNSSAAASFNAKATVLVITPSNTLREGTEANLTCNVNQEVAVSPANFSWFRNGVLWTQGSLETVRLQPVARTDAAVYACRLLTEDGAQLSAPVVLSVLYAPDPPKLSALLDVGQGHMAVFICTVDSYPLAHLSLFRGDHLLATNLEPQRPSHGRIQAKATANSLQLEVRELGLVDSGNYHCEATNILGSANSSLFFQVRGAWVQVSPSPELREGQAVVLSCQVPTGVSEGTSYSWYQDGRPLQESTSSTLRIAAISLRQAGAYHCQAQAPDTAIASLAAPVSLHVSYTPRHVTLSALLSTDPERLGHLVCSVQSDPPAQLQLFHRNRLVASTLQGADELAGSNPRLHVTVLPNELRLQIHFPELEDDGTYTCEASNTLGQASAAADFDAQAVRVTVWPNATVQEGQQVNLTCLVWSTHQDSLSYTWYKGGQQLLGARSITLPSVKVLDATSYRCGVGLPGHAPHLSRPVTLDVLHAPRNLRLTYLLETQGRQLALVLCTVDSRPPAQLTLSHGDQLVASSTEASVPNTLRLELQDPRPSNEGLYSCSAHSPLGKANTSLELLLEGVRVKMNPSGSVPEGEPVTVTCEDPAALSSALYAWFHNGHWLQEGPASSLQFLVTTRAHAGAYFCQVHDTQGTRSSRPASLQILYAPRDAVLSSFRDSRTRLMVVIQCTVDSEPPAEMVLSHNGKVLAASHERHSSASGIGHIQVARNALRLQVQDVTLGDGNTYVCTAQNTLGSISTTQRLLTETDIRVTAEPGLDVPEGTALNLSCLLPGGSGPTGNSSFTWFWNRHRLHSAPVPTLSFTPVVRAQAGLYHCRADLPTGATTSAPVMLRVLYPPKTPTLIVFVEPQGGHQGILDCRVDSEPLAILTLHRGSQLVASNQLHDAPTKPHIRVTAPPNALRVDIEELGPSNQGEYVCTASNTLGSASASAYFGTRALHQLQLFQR

B1: rmCD43-hFc (Fc fusion, mouse, UniProt P15702 20-248, looked up)
chain: DSLQRTTMLPSTPHITAPSTSEAQNASPSVSVGSGTVDSKETISPWGQTTIPVSLTPLETTELSSLETSAGASMSTPVPEPTASQEVSSKTSALLPEPSNVASDPPVTAANPVTDGPAANPVTDGTAASTSISKGTSAPPTTVTTSSNETSGPSVATTVSSKTSGPPVTTATGSLGPSSEMHGLPATTATSSVESSSVARGTSVSSRKTSTTSTQDPITTRSPSQESSG
Turning to B1, binding was put at a Kd of 107 nM.

By Kd is commonly meant the constant that tells how readily two partners part at equilibrium.
